Results reported in paper PMC3352095, “Structure and function of FusB: an elongation factor G-binding fusidic acid resistance protein active in ribosomal translocation and recycling” (Open Biology, 2012).

Assays:
S. aureus EF-G = biological target: T1, S. aureus EF-G (Staphylococcus aureus, UniProt P68790); assay: tripeptide (fMet-Phe-Phe) formation, quenched at […] s, HPLC; type: biochemical
T1 construct: gene fusA; full-length wild type, recombinant; assayed on E. coli 70S ribosomes with E. coli translation factors

[1] = biological target: S. aureus elongation factor G (S. aureus) (UniProt P68790)
[2] = biological target: S. aureus elongation factor G (S. aureus) (UniProt P68790); assay: SEC; 2 nmol EF-G (wild-type or hybrid) with or without 4 nmol FusB (twofold excess) in 100 µl gel filtration buffer (20 mM Tris pH 7.8, 300 mM NaCl) on Superdex200 10/300; shift in elution volume of the EF-G peak as read-out; hybrid G also with 2.5-fold excess of FusB
[3] = biological target: S. aureus elongation factor G (S. aureus) (UniProt P68790); remark: listed apart in the source
[4] = biological target: S. aureus elongation factor G (S. aureus) (UniProt P68790); remark: listed apart in the source

Compound	inhibition at 150 µM (S. aureus EF-G)	rate of splitting of the post-termination complex by S. aureus EF-G and RRF (Rayleigh light scattering) with FA 10 µM and FusB 1 µM (0.15 s^-1 without FA; blocked with FA alone) [1]	stoichiometry N [2]	multiple- and single-round luciferase synthesis in a reconstituted E. coli transcription-translation system with S. aureus EF-G, FA 20 µM, FusB 1 µM; increase against the reactions with only FA [3]	extent of tripeptide formation in 10 s with S. aureus EF-G, FA 150 µM (50 per cent with FA alone), FusB 1 µM [4]
CC(=O)O[C@H]1C[C@@]2(C)[C@@H](C[C@@H](O)[C@H]3[C@@]4(C)CC[C@@H](O)[C@@H](C)[C@@H]4CC[C@@]32C)/C1=C(\CCC=C(C)C)C(=O)O [FA, fusidic acid]	50%	–	–	–	–
FusB (natural protein)	–	0.02 s⁻¹	1	< 5 fold	75 per cent
